Source: the supplement of paper PMC10724198
± gives the standard deviation of the averaged measurements.

System: Saccharomyces cerevisiae
Assay: protein stability index of tFT-peptide fusion (C-terminal peptide) (PSI (0-1 scale)); higher = more stable (slower turnover)
Settings: genetic background: wild type; temperature: 30 C
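Further: PSI is a weighted mean of sequencing reads over stability bins, variants kept only with over 10 reads, mCherry proximal and sfGFP distal, peptide attached via GGGS linker.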

| Sequence | protein stability index |
| --- | --- |
| KKTQKNIKKKAK | 0.679 ± 0.025 |
| EKNKRMEVKAKR | 0.67 ± 0.0096 |
| HPIPHDVSGRRN | 0.784 ± 0.1 |
| FPPPLCLHRPIP | 0.786 ± 0.1 |
| KEEKRMKLKKLQ | 0.537 ± 0.082 |
| PPPPAAFFPRSP | 0.827 ± 0.11 |
| LPSPSYPAPVPN | 0.65 ± 0.074 |
| ECVPEVACCPWR | 0.729 ± 0.03 |
| SARLTPDLPAPS | 0.642 ± 0.017 |
| PTREGSDGMVGN | 0.702 ± 0.021 |
| NAVCCGKWRGGS | 0.714 ± 0.11 |
| PRFGPPQLPAKA | 0.754 ± 0.062 |
| GIISLTPRGCTR | 0.92 ± 0.11 |
| PPPTLPSPPSPP | 0.712 ± 0.011 |
| LVGAGREGRFVA | 0.732 ± 0.083 |
| SRCFGGRCQVIE | 0.67 ± 0.02 |
| RPPPPPSPPPPP | 0.674 ± 0.073 |
| SLLPHSPLLPPP | 0.694 ± 0.0031 |
| RDRMSEGLGDRS | 0.684 ± 0.059 |
| SYLWRINVSGCV | 0.6955 ± 0.0013 |
| FPRLTYAPFLAD | 0.722 ± 0.02 |
| ETALKVGSVGGV | 0.71037 ± 6.9e-05 |
| FVFDVTAYRGLL | 0.738 ± 0.03 |
| QIERSRIAYLST | 0.6933 ± 0.0027 |
| WEWGCRVEELSG | 0.742 ± 0.0086 |
| GRWRVLREVGAS | 0.664 ± 0.01 |

| Sequence | protein stability index |
| --- | --- |
| PSPAPRPFAPLP | 0.69 ± 0.01 |
| SPLSPPHRHNTT | 0.701 ± 0.017 |
| PLSLSVPPAFFI | 0.538 ± 0.14 |
| KDLFDLYLKRLL | 0.65 ± 0.0098 |
| HLLLLSLVFFFW | 0.744 ± 0.017 |
| PSPPQLPAAPSP | 0.779 ± 0.086 |
| PPSPRHPAPQPR | 0.679 ± 0.026 |
| SPPVPPLPAPAT | 0.539 ± 0.012 |
| GKCTGSAEMRPQ | 0.627 ± 0.079 |
| GVVSVFVGSLGG | 0.699 ± 0.067 |
| DLGARWLFLLQT | 0.622 ± 0.012 |
| QRWKEGRGHSRQ | 0.686 ± 0.017 |
| LLIFFFSSSCPL | 0.5359 ± 0.0025 |
| RDCSGGRRGLER | 0.601 ± 0.023 |
| KIQLTTMKNHGK | 0.685 ± 0.013 |
| IKKEENKNENQE | 0.6809 ± 0.0035 |
| VLRFATIKRMYP | 0.661 ± 0.018 |
| PDPPPLLPRLSL | 0.701 ± 0.016 |
| LPVPLYPTPALL | 0.666 ± 0.14 |
| CKKGCTEVKNAV | 0.719 ± 0.084 |
| NEGRRNSRRHGG | 0.683 ± 0.028 |
| LGPGGVAWGAWW | 0.7623 ± 0.0022 |
| LPTSPQLPHAPS | 0.7192 ± 0.0046 |
| NKQKKDEKNKTE | 0.73 ± 0.17 |
| FLGGDVVGVFVG | 0.658 ± 0.059 |
| IWVGNEENEEII | 0.669 ± 0.082 |

| Sequence | protein stability index |
| --- | --- |
| RRTKKERQKSWK | 0.649 ± 0.038 |
| RGQDGSEGRGPA | 0.653 ± 0.02 |
| PAYTRDIRKPRH | 0.654 ± 0.051 |
| GAVGDRVRVCGS | 0.668 ± 0.02 |
| PLVVPPSPRPPP | 0.735 ± 0.063 |
| KKIKKKKNKKQE | 0.735 ± 0.075 |
| KKKKKKKQIKKK | 0.747 ± 0.026 |
| RLLFPPPMLPPP | 0.735 ± 0.038 |
| GCGGVGGFGGGL | 0.605 ± 0.047 |
| FGRSGDGVGGLA | 0.667 ± 0.026 |
| CFKETLLKGSRQ | 0.718 ± 0.034 |
| APPPLPLPPPAP | 0.705 ± 0.033 |
| CSPGLSGCVSYV | 0.665 ± 0.12 |
| SGGRLVVCEGPG | 0.65 ± 0.087 |
| SPCVPTPSRPAS | 0.685 ± 0.079 |
| KTENGRSNSETR | 0.686 ± 0.074 |
| PPPPAPPVPLPL | 0.693 ± 0.016 |
| PSLCFLPPPPSP | 0.686 ± 0.0076 |
| PPPRSLPPISPV | 0.623 ± 0.02 |
| QMSHTGPTTIQS | 0.695 ± 0.023 |
| RRRTGRRNCTET | 0.712 ± 0.038 |
| PPHPPPRLPPPP | 0.724 ± 0.043 |
| RLAPASAFPHSP | 0.687 ± 0.052 |
| ALRGESWKSKQG | 0.664 ± 0.13 |
| PLPPRSPPRRPS | 0.634 ± 0.079 |
| RLWKQPWLTMAF | 0.496 ± 0.038 |

| Sequence | protein stability index |
| --- | --- |
| GRGFGFDITISS | 0.712 ± 0.098 |
| PLHVSLVRFGCP | 0.633 ± 0.032 |
| RPSVSNVSEAEE | 0.6479 ± 0.0037 |
| YVSLAHLRWGVE | 0.732 ± 0.055 |
| KNIIEKKIKKRK | 0.711 ± 0.0049 |
| CGLSYSAVDLGV | 0.684 ± 0.01 |
| NPSNEKERRKKN | 0.704 ± 0.02 |
| GMDGRGGGGSVV | 0.723 ± 0.039 |
| VGLEVGPLVGGE | 0.6921 ± 0.0029 |
| SNAFWVRPFKIG | 0.667 ± 0.013 |
| GGGGWGRGKGCW | 0.719 ± 0.0079 |
| IPSHSVLCLSIY | 0.497 ± 0.042 |
| GPGVFGGFRTEK | 0.648 ± 0.056 |
| LTPMDVPDPLPH | 0.757 ± 0.14 |
| LGCSMSPYFVRF | 0.802 ± 0.074 |
| IFMGSPYPRLPT | 0.633 ± 0.018 |
| CPCAWFSFLCFS | 0.666 ± 0.0066 |
| APPRSPRSLPPL | 0.658 ± 0.013 |
| LCLDNFSSSWPI | 0.719 ± 0.02 |
| PRALLCLLSRPC | 0.722 ± 0.1 |
| RSRPPPPPLLFP | 0.701 ± 0.043 |
| TGSRHDLDGSMK | 0.679 ± 0.017 |
| LHPCATITELTS | 0.652 ± 0.026 |
